B1: Achaete-scute complex protein T4 (Drosophila melanogaster (Fruit fly)), P10084 (parent)
chain: MKNNNNTTKSTTMSSSVLSTNETFPTTINSATKIFRYQHIMPAPSPLIPGGNQNQPAGTMPIKTRKYTPRGMALTRCSESVSSLSPGSSPAPYNVDQSQSVQRRNARERNRVKQVNNSFARLRQHIPQSIITDLTKGGGRGPHKKISKVDTLRIAVEYIRRLQDLVDDLNGGSNIGANNAVTQLQLCLDESSSHSSSSSTCSSSGHNTYYQNTISVSPLQQQQQLQRQQFNHQPLTALSLNTNLVGTSVPGGDAGCVSTSKNQQTCHSPTSSFNSSMSFDSGTYEGVPQQISTHLDRLDHLDNELHTHSQLQLKFEPYEHFQLDEEDCTPDDEEILDYISLWQEQ
partner: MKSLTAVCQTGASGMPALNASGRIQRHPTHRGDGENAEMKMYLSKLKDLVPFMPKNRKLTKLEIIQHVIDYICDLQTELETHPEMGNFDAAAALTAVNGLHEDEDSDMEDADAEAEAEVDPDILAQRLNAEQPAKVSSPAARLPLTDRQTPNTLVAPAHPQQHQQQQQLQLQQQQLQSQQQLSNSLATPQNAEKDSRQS
B2: Achaete-scute complex protein T4 (Drosophila melanogaster (Fruit fly)), P10084 (parent)
chain: B1 chain
partner: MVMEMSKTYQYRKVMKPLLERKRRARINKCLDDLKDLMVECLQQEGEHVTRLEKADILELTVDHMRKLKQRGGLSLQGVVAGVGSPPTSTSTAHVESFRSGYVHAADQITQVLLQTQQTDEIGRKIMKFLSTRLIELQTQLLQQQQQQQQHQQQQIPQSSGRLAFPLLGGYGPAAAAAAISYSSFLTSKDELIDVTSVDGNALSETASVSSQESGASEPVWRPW

Variants of: B1
Conditions: with emc_drome emc

| effect of a mutation on the interaction | Variant |
| --- | --- |
| decreasing interaction | S340D |

Variants of: B2
Conditions: with esm3_drome E(spl)m3-HLH

| effect of a mutation on the interaction | Variant |
| --- | --- |
| increasing interaction | S340D |
